Experiment [1] concerns the target human CD33 Y50A (human, UniProt P20138 18-364). The experiment is described as follows: alanine scan, flow cytometry, HEK293-T.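 Further: antibody binding to each alanine-substituted CD33 mutant expressed transiently in HEK293-T, read as fluorescence minus background, mean of duplicates, relative to wild-type CD33 set as 100%.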 A general note: A flow cytometer gives signals particle by particle.
In experiment [2] the target is human CD33 F61A (human, UniProt P20138 18-364). Description: alanine scan, flow cytometry, HEK293-T.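 Further: antibody binding to each alanine-substituted CD33 mutant expressed transiently in HEK293-T, read as fluorescence minus background, mean of duplicates, relative to wild-type CD33 set as 100%.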
Chain of human CD33 F61A (P20138 18-364 F61A limits assumed): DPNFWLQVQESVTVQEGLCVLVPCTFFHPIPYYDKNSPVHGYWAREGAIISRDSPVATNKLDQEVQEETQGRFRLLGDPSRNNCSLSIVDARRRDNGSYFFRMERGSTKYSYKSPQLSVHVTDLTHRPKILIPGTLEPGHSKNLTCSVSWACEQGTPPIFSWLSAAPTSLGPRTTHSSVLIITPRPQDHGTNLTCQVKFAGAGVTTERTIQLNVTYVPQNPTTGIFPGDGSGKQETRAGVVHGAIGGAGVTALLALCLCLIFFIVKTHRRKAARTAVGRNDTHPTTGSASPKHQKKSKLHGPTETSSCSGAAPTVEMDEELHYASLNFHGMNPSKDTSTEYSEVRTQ
Experiment [3] concerns the target human CD33 S68A (human, UniProt P20138 18-364). Description: alanine scan, flow cytometry, HEK293-T.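 Further: antibody binding to each alanine-substituted CD33 mutant expressed transiently in HEK293-T, read as fluorescence minus background, mean of duplicates, relative to wild-type CD33 set as 100%.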
In experiment [4] the target is human CD33 Q80A (human, UniProt P20138 18-364). Description: alanine scan, flow cytometry, HEK293-T.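 Further: antibody binding to each alanine-substituted CD33 mutant expressed transiently in HEK293-T, read as fluorescence minus background, mean of duplicates, relative to wild-type CD33 set as 100%.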
Chain of human CD33 Q80A (P20138 18-364 Q80A limits assumed): as the sequence (P20138 18-364 F61A limits assumed) above, with A44F, Q63A counted along it
Experiment [5] deals with human CD33 E84A (human, UniProt P20138 18-364). The experiment is described as follows: alanine scan, flow cytometry, HEK293-T.
Chain of human CD33 E84A (P20138 18-364 E84A limits assumed): as the sequence (P20138 18-364 F61A limits assumed) above, with A44F, E67A counted along it
For experiment [6], the target named is human CD33 L92A (human, UniProt P20138 18-364). Description: alanine scan, flow cytometry, HEK293-T.
Chain of human CD33 L92A (P20138 18-364 L92A limits assumed): as the sequence (P20138 18-364 F61A limits assumed) above, with A44F, L75A counted along it
Experiment [7] addresses human CD33 S97A (human, UniProt P20138 18-364). Description: alanine scan, flow cytometry, HEK293-T.
Experiment [8] addresses human CD33 D107A (human, UniProt P20138 18-364). Description: alanine scan, flow cytometry, HEK293-T.
For experiment [9], the target named is human CD33 G114A (human, UniProt P20138 18-364). The experiment is described as follows: alanine scan, flow cytometry, HEK293-T.
Chain of human CD33 G114A (P20138 18-364 G114A limits assumed): as the sequence (P20138 18-364 F61A limits assumed) above, with A44F, G97A counted along it
The target in experiment [10] is human CD33 F44S (human, UniProt P20138 18-364). The experiment is described as follows: flow cytometry on transfected cells, IgG.
Chain of human CD33 F44S (P20138 18-364 F44S limits assumed): as the sequence (P20138 18-364 F61A limits assumed) above, with F27S, A44F counted along it
Description: (§1) An alanine scan on human CD33 was performed to the determine the residues on CD33 that are involved in binding to the antibodies investigated. […] Briefly, a mutation library of CD33 was created by high-throughput, site-directed mutagenesis. Each residue was individually mutated to alanine, with alanine codons mutated to serine. The mutant library was arrayed in 384-well microplates and transiently transfected into HEK293-T. Following transfection, cells were incubated with the indicated antibodies (IgG or Fab) at concentrations pre-determined using an independent immunofluorescence titration curve on wild type CD33. […] Binding of each antibody to each mutant clone was determined in duplicates. For each point, background fluorescence was subtracted from the raw data, which were then normalized to antibody reactivity with wild type CD33.
(§2) Antibodies were screened for binding to the human CD33 variants in IgG format. […] For each mutation, background fluorescence was subtracted from the raw data, which were then normalized to antibody reactivity with wild-type CD33.
For experiment [11], the target named is human CD33 F44V (human, UniProt P20138 18-364). The experiment is described as follows: flow cytometry on transfected cells, IgG.
Chain of human CD33 F44V (P20138 18-364 F44V limits assumed): as the sequence (P20138 18-364 F61A limits assumed) above, with F27V, A44F counted along it
Description: as §1, §2
The target of experiment [12] is human CD33 F44L (human, UniProt P20138 18-364). Description: flow cytometry on transfected cells, IgG.
Chain of human CD33 F44L (P20138 18-364 F44L limits assumed): as the sequence (P20138 18-364 F61A limits assumed) above, with F27L, A44F counted along it
Description: as §1, §2
For experiment [13], the target named is human CD33 P46I (human, UniProt P20138 18-364). Description: flow cytometry on transfected cells, IgG.
Chain of human CD33 P46I (P20138 18-364 P46I limits assumed): as the sequence (P20138 18-364 F61A limits assumed) above, with P29I, A44F counted along it
Description: as §1, §2
Experiment [14] addresses human CD33 P46L (human, UniProt P20138 18-364). The experiment is described as follows: flow cytometry on transfected cells, IgG.
Description: as §1, §2
The target in experiment [15] is human CD33 P46H (human, UniProt P20138 18-364). Description: flow cytometry on transfected cells, IgG.
Chain of human CD33 P46H (P20138 18-364 P46H limits assumed): as the sequence (P20138 18-364 F61A limits assumed) above, with P29H, A44F counted along it
Description: as §1, §2
Experiment [16] deals with human CD33 P46D (human, UniProt P20138 18-364). The experiment is described as follows: flow cytometry on transfected cells, IgG.
Chain of human CD33 P46D (P20138 18-364 P46D limits assumed): as the sequence (P20138 18-364 F61A limits assumed) above, with P29D, A44F counted along it
Description: as §1, §2
In experiment [17] the target is human CD33 I47S (human, UniProt P20138 18-364). The experiment is described as follows: flow cytometry on transfected cells, IgG.
Chain of human CD33 I47S (P20138 18-364 I47S limits assumed): as the sequence (P20138 18-364 F61A limits assumed) above, with I30S, A44F counted along it
Description: as §1, §2
Experiment [18] addresses human CD33 I47E (human, UniProt P20138 18-364). The experiment is described as follows: flow cytometry on transfected cells, IgG.
Description: as §1, §2
For experiment [19], the target named is human CD33 I47P (human, UniProt P20138 18-364). Description: flow cytometry on transfected cells, IgG.
Chain of human CD33 I47P (P20138 18-364 I47P limits assumed): as the sequence (P20138 18-364 F61A limits assumed) above, with I30P, A44F counted along it
Description: as §1, §2
For experiment [20], the target named is human CD33 I47N (human, UniProt P20138 18-364). Description: flow cytometry on transfected cells, IgG.
Chain of human CD33 I47N (P20138 18-364 I47N limits assumed): as the sequence (P20138 18-364 F61A limits assumed) above, with I30N, A44F counted along it
Description: as §1, §2
Experiment [21] has as its target human CD33 P48Y (human, UniProt P20138 18-364). The experiment is described as follows: flow cytometry on transfected cells, IgG.
Description: as §1, §2
Experiment [22] addresses human CD33 P48W (human, UniProt P20138 18-364). The experiment is described as follows: flow cytometry on transfected cells, IgG.
Description: as §1, §2
Experiment [23] deals with human CD33 P48D (human, UniProt P20138 18-364). The experiment is described as follows: flow cytometry on transfected cells, IgG.
Chain of human CD33 P48D (P20138 18-364 P48D limits assumed): as the sequence (P20138 18-364 F61A limits assumed) above, with P31D, A44F counted along it
Description: as §1, §2
In experiment [24] the target is human CD33 T42N (human, UniProt P20138 18-364). Description: flow cytometry on transfected cells, IgG.
Chain of human CD33 T42N (P20138 18-364 T42N limits assumed): as the sequence (P20138 18-364 F61A limits assumed) above, with T25N, A44F counted along it
Description: as §1, §2
In experiment [25] the target is human CD33 Y49T (human, UniProt P20138 18-364). The experiment is described as follows: flow cytometry on transfected cells, IgG.
Chain of human CD33 Y49T (P20138 18-364 Y49T limits assumed): as the sequence (P20138 18-364 F61A limits assumed) above, with Y32T, A44F counted along it
Description: as §1, §2
Experiment [26] deals with human CD33 Y50S (human, UniProt P20138 18-364). The experiment is described as follows: flow cytometry on transfected cells, IgG.
Chain of human CD33 Y50S (P20138 18-364 Y50S limits assumed): as the sequence (P20138 18-364 F61A limits assumed) above, with Y33S, A44F counted along it
Description: as §1, §2
The target of experiment [27] is human CD33 Y50I (human, UniProt P20138 18-364). The experiment is described as follows: flow cytometry on transfected cells, IgG.
Chain of human CD33 Y50I (P20138 18-364 Y50I limits assumed): as the sequence (P20138 18-364 F61A limits assumed) above, with Y33I, A44F counted along it
Description: as §1, §2
The target of experiment [28] is human CD33 Y50Q (human, UniProt P20138 18-364). The experiment is described as follows: flow cytometry on transfected cells, IgG.
Chain of human CD33 Y50Q (P20138 18-364 Y50Q limits assumed): as the sequence (P20138 18-364 F61A limits assumed) above, with Y33Q, A44F counted along it
Description: as §1, §2
The target of experiment [29] is T1, human CD33 Y127A (human, UniProt P20138 18-364).
T1 construct: alanine scan clone, transfected HEK293-T
T1 sequence (P20138 18-364 Y127A limits assumed): as the sequence (P20138 18-364 F61A limits assumed) above, with A44F, Y110A counted along it
The experiment is described as follows: alanine scan, flow cytometry, HEK293-T.

In experiment [30] the target is T2, human CD33 R144A (human, UniProt P20138 18-364).
T2 construct: alanine scan clone, transfected HEK293-T
T2 sequence (P20138 18-364 R144A limits assumed): as the sequence (P20138 18-364 F61A limits assumed) above, with A44F, R127A counted along it
Description: alanine scan, flow cytometry, HEK293-T.

The target of experiment [31] is T3, human CD33 L161A (human, UniProt P20138 18-364).
T3 construct: alanine scan clone, transfected HEK293-T
T3 sequence (P20138 18-364 L161A limits assumed): as the sequence (P20138 18-364 F61A limits assumed) above, with A44F, L144A counted along it
The experiment is described as follows: alanine scan, flow cytometry, HEK293-T.

Experiment [32] deals with T4, human CD33 G172A (human, UniProt P20138 18-364).
T4 construct: alanine scan clone, transfected HEK293-T
T4 sequence (P20138 18-364 G172A limits assumed): as the sequence (P20138 18-364 F61A limits assumed) above, with A44F, G155A counted along it
The experiment is described as follows: alanine scan, flow cytometry, HEK293-T.

The target of experiment [33] is T5, human CD33 R122A (human, UniProt P20138 18-364).
T5 construct: alanine scan clone, transfected HEK293-T
T5 sequence (P20138 18-364 R122A limits assumed): as the sequence (P20138 18-364 F61A limits assumed) above, with A44F, R105A counted along it
The experiment is described as follows: alanine scan, flow cytometry, HEK293-T.

Experiment [34] deals with T6, human CD33 A182S (human, UniProt P20138 18-364).
T6 construct: alanine scan clone, transfected HEK293-T
T6 sequence (P20138 18-364 A182S limits assumed): as the sequence (P20138 18-364 F61A limits assumed) above, with A44F, A165S counted along it
Description: alanine scan, flow cytometry, HEK293-T.

Experiment [35] has as its target T7, human CD33 R190A (human, UniProt P20138 18-364).
T7 construct: alanine scan clone, transfected HEK293-T
Description: alanine scan, flow cytometry, HEK293-T.

In experiment [36] the target is T8, human CD33 S195A (human, UniProt P20138 18-364).
T8 construct: alanine scan clone, transfected HEK293-T
T8 sequence (P20138 18-364 S195A limits assumed): as the sequence (P20138 18-364 F61A limits assumed) above, with A44F, S178A counted along it
The experiment is described as follows: alanine scan, flow cytometry, HEK293-T.

The target of experiment [37] is T9, human CD33 T125A (human, UniProt P20138 18-364).
T9 construct: alanine scan clone, transfected HEK293-T
T9 sequence (P20138 18-364 T125A limits assumed): as the sequence (P20138 18-364 F61A limits assumed) above, with A44F, T108A counted along it
Description: alanine scan, flow cytometry, HEK293-T.

T7 sequence (P20138 18-364 R190A limits assumed): as the sequence (P20138 18-364 F61A limits assumed) above, with A44F, R173A counted along it
Chain of human CD33 P48Y (P20138 18-364 P48Y limits assumed): as the sequence (P20138 18-364 F61A limits assumed) above, with P31Y, A44F counted along it
Chain of human CD33 P46L (P20138 18-364 P46L limits assumed): as the sequence (P20138 18-364 F61A limits assumed) above, with P29L, A44F counted along it
Chain of human CD33 S97A (P20138 18-364 S97A limits assumed): as the sequence (P20138 18-364 F61A limits assumed) above, with A44F, S80A counted along it
Chain of human CD33 Y50A (P20138 18-364 Y50A limits assumed): as the sequence (P20138 18-364 F61A limits assumed) above, with Y33A, A44F counted along it
Chain of human CD33 I47E (P20138 18-364 I47E limits assumed): as the sequence (P20138 18-364 F61A limits assumed) above, with I30E, A44F counted along it
Chain of human CD33 P48W (P20138 18-364 P48W limits assumed): as the sequence (P20138 18-364 F61A limits assumed) above, with P31W, A44F counted along it
Chain of human CD33 D107A (P20138 18-364 D107A limits assumed): as the sequence (P20138 18-364 F61A limits assumed) above, with A44F, D90A counted along it
Chain of human CD33 S68A (P20138 18-364 S68A limits assumed): as the sequence (P20138 18-364 F61A limits assumed) above, with A44F, S51A counted along it

B1: Refmab #5 (antibody, V domains shown)
VH: QVQLVQSGAEVKKPGASVKVSCKASGYTFTNYDINWVRQAPGQGLEWIGWIYPGDGSTKYNEKFKAKATLTADTSTSTAYMELRSLRSDDTAVYYCASGYEDAMDYWGQGTTVTVSS
VL: DIQMTQSPSSLSASVGDRVTINCKASQDINSYLSWFQQKPGKAPKTLIYRANRLVDGVPSRFSGSGSGQDYTLTISSLQPEDFATYYCLQYDEFPLTFGGGTKVEIK
notes: Full-length format is human IgG1 Fc silent (PG-LALA); also made as Fab; The alanine scan used IgG or Fab
Take B1: the “Mean % WT Binding” value in experiment [1] was determined as 55.7 % WT binding; in [2], 161 % WT binding; in experiment [3], 142 % WT binding; in experiment [4] it was 151 % WT binding; in experiment [5], 141 % WT binding; in experiment [6], 127 % WT binding. Moreover, the “Mean % WT Binding” value came out at 126 % WT binding in [7], 119 % WT binding in [8] and 79 % WT binding in experiment [9].

B2: Refmab #5 (antibody, human IgG1, V domains shown)
VH: QVQLVQSGAEVKKPGASVKVSCKASGYTFTNYDINWVRQAPGQGLEWIGWIYPGDGSTKYNEKFKAKATLTADTSTSTAYMELRSLRSDDTAVYYCASGYEDAMDYWGQGTTVTVSS
VL: DIQMTQSPSSLSASVGDRVTINCKASQDINSYLSWFQQKPGKAPKTLIYRANRLVDGVPSRFSGSGSGQDYTLTISSLQPEDFATYYCLQYDEFPLTFGGGTKVEIK
Turning to B2, the “Mean % WT Binding” value was found to be 104 % WT binding in [10]; 97.7 % WT binding in [11]; 109 % WT binding in experiment [12]; 100 % WT binding in experiment [13]; 87.2 % WT binding in experiment [14]; 69.8 % WT binding in experiment [15]. The “Mean % WT Binding” value amounted to 76 % WT binding in [16]; 98.2 % WT binding in experiment [17]; 89.1 % WT binding in experiment [18]; 4.9 % WT binding in [19]; 88 % WT binding in experiment [20]; 1.5 % WT binding in experiment [21]. In addition, the “Mean % WT Binding” value in experiment [22] was 2.2 % WT binding; in experiment [23] it was 2.1 % WT binding; in experiment [24] it was 91.1 % WT binding; in experiment [25], 0.5 % WT binding; in experiment [26], 5.3 % WT binding; in [27], 2.5 % WT binding. Besides, the “Mean % WT Binding” value in [28] turned out to be 2.9 % WT binding.

B3: Refmab #5 (antibody, V domains shown)
VH: QVQLVQSGAEVKKPGASVKVSCKASGYTFTNYDINWVRQAPGQGLEWIGWIYPGDGSTKYNEKFKAKATLTADTSTSTAYMELRSLRSDDTAVYYCASGYEDAMDYWGQGTTVTVSS
VL: DIQMTQSPSSLSASVGDRVTINCKASQDINSYLSWFQQKPGKAPKTLIYRANRLVDGVPSRFSGSGSGQDYTLTISSLQPEDFATYYCLQYDEFPLTFGGGTKVEIK
notes: The alanine scan used IgG or Fab
Take B3: the “Mean % WT Binding” value in experiment [29] was determined as 199 % WT binding; in experiment [30], 71 % WT binding; in [31], 130 % WT binding; in experiment [32], 92.7 % WT binding; in experiment [33] it was 85.7 % WT binding; in experiment [34], 103 % WT binding. The figures for the “Mean % WT Binding” value in experiment [35], in experiment [36] and in [37] were 112 % WT binding, 117 % WT binding and 56.7 % WT binding, respectively.

B4: Refmab #6 (antibody, V domains shown)
VH: QVQLQQPGAEVVKPGASVKMSCKASGYTFTSYYIHWIKQTPGQGLEWVGVIYPGNDDISYNQKFQGKATLTADKSSTTAYMQLSSLTSEDSAVYYCAREVRLRYFDVWGQGTTVTVSS
VL: EIVLTQSPGSLAVSPGERVTMSCKSSQSVFFSSSQKNYLAWYQQIPGQSPRLLIYWASTRESGVPDRFTGSGSGTDFTLTISSVQPEDLAIYYCHQYLSSRTFGQGTKLEIK
notes: as for B1
For the molecule B4, the “Mean % WT Binding” value is 113 % WT binding in [1]; 111 % WT binding in experiment [2]; 86.4 % WT binding in [3]; 102 % WT binding in experiment [4]; 97.4 % WT binding in experiment [5]; 85.3 % WT binding in [6]. Moreover, the “Mean % WT Binding” value in [7] came to 93.7 % WT binding; in [8], 96.5 % WT binding; in [9], 106 % WT binding.

B5: Refmab #6 (antibody, human IgG1, V domains shown)
VH: QVQLQQPGAEVVKPGASVKMSCKASGYTFTSYYIHWIKQTPGQGLEWVGVIYPGNDDISYNQKFQGKATLTADKSSTTAYMQLSSLTSEDSAVYYCAREVRLRYFDVWGQGTTVTVSS
VL: EIVLTQSPGSLAVSPGERVTMSCKSSQSVFFSSSQKNYLAWYQQIPGQSPRLLIYWASTRESGVPDRFTGSGSGTDFTLTISSVQPEDLAIYYCHQYLSSRTFGQGTKLEIK
B5: the “Mean % WT Binding” value is 86.1 % WT binding in experiment [10]; 98.9 % WT binding in experiment [11]; 104 % WT binding in experiment [12]; 98.5 % WT binding in [13]; 107 % WT binding in experiment [14]; 107 % WT binding in experiment [15]. The “Mean % WT Binding” value was 104 % WT binding in experiment [16]; 91 % WT binding in experiment [17]; 122 % WT binding in experiment [18]; 114 % WT binding in experiment [19]; 96.6 % WT binding in [20]; 79.1 % WT binding in experiment [21]. In addition, the “Mean % WT Binding” value was 87.2 % WT binding in experiment [22]; 115 % WT binding in experiment [23]; 93.5 % WT binding in experiment [24]; 121 % WT binding in experiment [25]; 122 % WT binding in experiment [26]; 118 % WT binding in experiment [27]. Also, the “Mean % WT Binding” value in experiment [28] amounted to 103 % WT binding.

B6: Refmab #6 (antibody, V domains shown)
VH: QVQLQQPGAEVVKPGASVKMSCKASGYTFTSYYIHWIKQTPGQGLEWVGVIYPGNDDISYNQKFQGKATLTADKSSTTAYMQLSSLTSEDSAVYYCAREVRLRYFDVWGQGTTVTVSS
VL: EIVLTQSPGSLAVSPGERVTMSCKSSQSVFFSSSQKNYLAWYQQIPGQSPRLLIYWASTRESGVPDRFTGSGSGTDFTLTISSVQPEDLAIYYCHQYLSSRTFGQGTKLEIK
notes: as for B3
Take B6: the “Mean % WT Binding” value in experiment [29] was 42 % WT binding; in experiment [30], 104 % WT binding; in experiment [31] it was 100 % WT binding; in [32], 76.8 % WT binding; in experiment [33], 106 % WT binding; in experiment [34], 93.9 % WT binding. In addition, the “Mean % WT Binding” value is 112 % WT binding in [35], 113 % WT binding in experiment [36] and 112 % WT binding in [37].

These data come from US20260242735A1 (UNIVERSIT T BASEL, published 2026).
